Data as given in patent US20210030857A1 (NGM BIOPHARMACEUTICALS, published 2021).

Assays:
[1] = biological target: T1, human beta klotho expressed on cells (human, UniProt Q86Z14 1-1044); assay: FACS on transfected Expi293 cells, antibody 1 µg/ml, labelled anti-human Fc
T1 construct: also called HuKLB overexpressing cells; Human KLB
T1 sequence: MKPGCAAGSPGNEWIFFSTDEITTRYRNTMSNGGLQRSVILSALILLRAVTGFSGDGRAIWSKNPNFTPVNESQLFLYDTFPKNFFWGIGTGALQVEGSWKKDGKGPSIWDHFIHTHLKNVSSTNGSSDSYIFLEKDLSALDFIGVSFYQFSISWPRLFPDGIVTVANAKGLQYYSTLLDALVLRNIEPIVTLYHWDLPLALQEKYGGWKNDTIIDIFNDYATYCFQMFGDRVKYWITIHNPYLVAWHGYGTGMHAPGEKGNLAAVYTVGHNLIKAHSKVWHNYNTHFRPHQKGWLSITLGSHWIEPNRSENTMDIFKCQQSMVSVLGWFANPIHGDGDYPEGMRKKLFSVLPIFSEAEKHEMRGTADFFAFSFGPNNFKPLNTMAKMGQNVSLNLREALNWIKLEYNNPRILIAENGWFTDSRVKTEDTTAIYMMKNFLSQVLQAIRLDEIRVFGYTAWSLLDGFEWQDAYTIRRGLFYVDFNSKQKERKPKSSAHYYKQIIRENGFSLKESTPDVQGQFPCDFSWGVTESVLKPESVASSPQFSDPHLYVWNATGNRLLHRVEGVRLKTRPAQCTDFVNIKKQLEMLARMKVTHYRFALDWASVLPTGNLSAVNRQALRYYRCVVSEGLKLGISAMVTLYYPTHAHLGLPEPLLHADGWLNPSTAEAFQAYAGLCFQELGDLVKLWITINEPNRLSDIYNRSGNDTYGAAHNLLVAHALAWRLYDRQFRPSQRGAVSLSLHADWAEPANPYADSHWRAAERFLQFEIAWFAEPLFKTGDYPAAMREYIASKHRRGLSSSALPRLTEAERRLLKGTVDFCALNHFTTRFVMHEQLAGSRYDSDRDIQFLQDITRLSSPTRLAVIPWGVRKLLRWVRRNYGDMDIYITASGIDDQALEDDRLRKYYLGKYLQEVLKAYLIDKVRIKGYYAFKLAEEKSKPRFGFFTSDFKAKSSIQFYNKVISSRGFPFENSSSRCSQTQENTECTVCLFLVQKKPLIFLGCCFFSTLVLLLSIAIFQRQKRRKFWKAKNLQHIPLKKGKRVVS
Description: (§1) Studies were performed in order to localize the binding site on human KLB of anti-beta klotho antibodies in the 5H23 epitope bin, including 5H23 as described in Example 3, with sequences shown in Tables 1-10 and FIGS. 1-3, and human anti-beta klotho antibodies in the 5H23 epitope bin, such as humanized 5H23 antibodies (e.g., VH SEQ ID NO: 271 and VL SEQ ID NO: 276). For example, FACS-based binding assays for domain mapping were performed on Expi293 cells (Life Technologies, A14635) that were transiently transfected with plasmids encoding variants of KLB: human, mouse, cynomolgus, a chimeric version in which the KL1 domain sequence of mouse KLB (M1-F506) replaces the KL1 domain of human KLB (M1-F508) to create mouse-human KLB (SEQ ID NO: 376), and a second chimera in which the human KL1 sequence (M1-F508) replaces the KL1 domain of mouse KLB (M1-F506) to create human-mouse KLB (SEQ ID NO: 374). Additionally, the expression vector pYD7 harboring no KLB sequence was transfected as a negative control.
(§2) In some studies, binding of a purified sample of a humanized 5H23 antibody (e.g., VH SEQ ID NO: 271 and VL SEQ ID NO: 276) to KLB variants was determined by FACS analysis. […] After washing with PBS/1% BSA/0.1% azide, transfected cells were then co-incubated with labeled anti-human Fc (Jackson lmmunoresearch) for 30 minutes at 4° C. After washing with PBS/1% BSA/0.1% azide, cells were acquired on flow cytometer (FACS Calibur) and analyzed by cytometric software (FlowJo). To display the resulting data, graphs plotting the number of cells as a function of fluorescence intensity were generated, and the median fluorescence intensity (MFI) was determined for each sample as shown in Table 30.

[2] = biological target: T2, cynomolgus beta klotho expressed on cells (cynomolgus monkey (Macaca fascicularis), UniProt Q86Z14 1-1044 (human entry)); assay: as above
T2 construct: also called Cynomolgus KLB
T2 chain: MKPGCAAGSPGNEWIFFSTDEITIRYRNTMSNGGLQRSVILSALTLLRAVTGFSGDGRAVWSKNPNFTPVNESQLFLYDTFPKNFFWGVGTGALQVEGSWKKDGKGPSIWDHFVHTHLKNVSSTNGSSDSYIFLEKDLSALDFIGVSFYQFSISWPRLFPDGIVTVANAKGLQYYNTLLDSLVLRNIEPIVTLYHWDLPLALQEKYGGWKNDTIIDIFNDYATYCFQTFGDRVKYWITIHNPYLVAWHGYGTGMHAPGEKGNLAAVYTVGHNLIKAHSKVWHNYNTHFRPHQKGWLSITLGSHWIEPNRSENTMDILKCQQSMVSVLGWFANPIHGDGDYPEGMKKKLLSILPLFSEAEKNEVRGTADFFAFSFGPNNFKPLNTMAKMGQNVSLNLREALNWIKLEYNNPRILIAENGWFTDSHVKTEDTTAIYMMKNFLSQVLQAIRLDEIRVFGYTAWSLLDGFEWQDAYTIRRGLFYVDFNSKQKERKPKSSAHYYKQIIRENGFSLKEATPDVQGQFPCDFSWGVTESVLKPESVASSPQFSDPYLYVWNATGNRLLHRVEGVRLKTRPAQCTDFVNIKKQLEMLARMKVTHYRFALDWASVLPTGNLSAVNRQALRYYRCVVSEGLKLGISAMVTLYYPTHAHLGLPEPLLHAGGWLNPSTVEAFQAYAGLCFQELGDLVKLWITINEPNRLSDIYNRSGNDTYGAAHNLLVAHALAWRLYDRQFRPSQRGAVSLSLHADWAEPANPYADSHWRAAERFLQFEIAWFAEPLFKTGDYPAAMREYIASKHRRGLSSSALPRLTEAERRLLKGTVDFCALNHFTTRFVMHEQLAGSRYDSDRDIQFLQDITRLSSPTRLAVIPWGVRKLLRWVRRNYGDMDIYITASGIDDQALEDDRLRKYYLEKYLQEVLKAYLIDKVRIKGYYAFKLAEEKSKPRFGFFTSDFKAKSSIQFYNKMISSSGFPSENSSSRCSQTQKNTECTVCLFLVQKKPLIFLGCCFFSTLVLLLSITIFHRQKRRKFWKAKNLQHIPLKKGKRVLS
Description: as §1, §2

B1: humanized 5H23 antibody (VH SEQ ID NO: 271 and VL SEQ ID NO: 276) (antibody, V domains shown)
VH: QVQLQQSGAEVKKPGASVKVSCKASGYTFTSYDINWVRQAPGQGLEWIGWIYPGDGSTKYNEKFKGKATITRDTSASTAYMELSSLRSEDTAVYFCARSDYYGSRSFAYWGQGTLVTVSS
VL: DIVMTQSPDSLAVSLGERATINCRASKSVSTSGYVYMHWYQQKPGQPPKLLIYLASYLESGVPDRFSGSGSGTDFTLTISSVQAEDVAVYYCQHSRDLTFPFGGGTKLEIK
notes: also called h5H23; h5H23 (Prep 1)
Mean Fluorescence intensity [1]: 865 MFI | Mean Fluorescence intensity [2]: 1910 MFI

B2: negative control antibody, anti-keyhole limpet hemocyanin (KLH) antibody (antibody, human IgG1, kappa, V domains shown)
VH: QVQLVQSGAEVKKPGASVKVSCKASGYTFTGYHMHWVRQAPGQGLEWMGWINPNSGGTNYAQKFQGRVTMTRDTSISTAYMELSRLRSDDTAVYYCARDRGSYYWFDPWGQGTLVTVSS
VL: DIQMTQSPSSLSASVGDRVTITCRASQGIRNDLGWYQQKPGKAPKRLIYAASSLQSGVPSRFSGSGSGTEFTLTISSLQPEDFATYYCLQHNSYPLTFGGGTKVEIKR
notes: also called Neg; Control; anti-KLH antibody
Mean Fluorescence intensity [1]: 6.2 MFI | Mean Fluorescence intensity [2]: 9.26 MFI
